Reference: paper PMC10112965, “Characterization of the nuclear import of the human CHD4–NuRD complex” (Journal of Cell Science, 2023)

Target: the molecule itself
Experiment: native gel or EMSA; 1 µg protein on a 4–16% NativePAGE gel with G-250 additive, room temperature, 150 V for 2 h, stained with Coomassie and silver

B1: CHD4-C-Flag, C-terminal Flag-tagged recombinant human CHD4 wild-type (enzyme, UniProt Q14839 1-1912, looked up)
chain: MASGLGSPSPCSAGSEEEDMDALLNNSLPPPHPENEEDPEEDLSETETPKLKKKKKPKKPRDPKIPKSKRQKKERMLLCRQLGDSSGEGPEFVEEEEEVALRSDSEGSDYTPGKKKKKKLGPKKEKKSKSKRKEEEEEEDDDDDSKEPKSSAQLLEDWGMEDIDHVFSEEDYRTLTNYKAFSQFVRPLIAAKNPKIAVSKMMMVLGAKWREFSTNNPFKGSSGASVAAAAAAAVAVVESMVTATEVAPPPPPVEVPIRKAKTKEGKGPNARRKPKGSPRVPDAKKPKPKKVAPLKIKLGGFGSKRKRSSSEDDDLDVESDFDDASINSYSVSDGSTSRSSRSRKKLRTTKKKKKGEEEVTAVDGYETDHQDYCEVCQQGGEIILCDTCPRAYHMVCLDPDMEKAPEGKWSCPHCEKEGIQWEAKEDNSEGEEILEEVGGDLEEEDDHHMEFCRVCKDGGELLCCDTCPSSYHIHCLNPPLPEIPNGEWLCPRCTCPALKGKVQKILIWKWGQPPSPTPVPRPPDADPNTPSPKPLEGRPERQFFVKWQGMSYWHCSWVSELQLELHCQVMFRNYQRKNDMDEPPSGDFGGDEEKSRKRKNKDPKFAEMEERFYRYGIKPEWMMIHRILNHSVDKKGHVHYLIKWRDLPYDQASWESEDVEIQDYDLFKQSYWNHRELMRGEEGRPGKKLKKVKLRKLERPPETPTVDPTVKYERQPEYLDATGGTLHPYQMEGLNWLRFSWAQGTDTILADEMGLGKTVQTAVFLYSLYKEGHSKGPFLVSAPLSTIINWEREFEMWAPDMYVVTYVGDKDSRAIIRENEFSFEDNAIRGGKKASRMKKEASVKFHVLLTSYELITIDMAILGSIDWACLIVDEAHRLKNNQSKFFRVLNGYSLQHKLLLTGTPLQNNLEELFHLLNFLTPERFHNLEGFLEEFADIAKEDQIKKLHDMLGPHMLRRLKADVFKNMPSKTELIVRVELSPMQKKYYKYILTRNFEALNARGGGNQVSLLNVVMDLKKCCNHPYLFPVAAMEAPKMPNGMYDGSALIRASGKLLLLQKMLKNLKEGGHRVLIFSQMTKMLDLLEDFLEHEGYKYERIDGGITGNMRQEAIDRFNAPGAQQFCFLLSTRAGGLGINLATADTVIIYDSDWNPHNDIQAFSRAHRIGQNKKVMIYRFVTRASVEERITQVAKKKMMLTHLVVRPGLGSKTGSMSKQELDDILKFGTEELFKDEATDGGGDNKEGEDSSVIHYDDKAIERLLDRNQDETEDTELQGMNEYLSSFKVAQYVVREEEMGEEEEVEREIIKQEESVDPDYWEKLLRHHYEQQQEDLARNLGKGKRIRKQVNYNDGSQEDRDWQDDQSDNQSDYSVASEEGDEDFDERSEAPRRPSRKGLRNDKDKPLPPLLARVGGNIEVLGFNARQRKAFLNAIMRYGMPPQDAFTTQWLVRDLRGKSEKEFKAYVSLFMRHLCEPGADGAETFADGVPREGLSRQHVLTRIGVMSLIRKKVQEFEHVNGRWSMPELAEVEENKKMSQPGSPSPKTPTPSTPGDTQPNTPAPVPPAEDGIKIEENSLKEEESIEGEKEVKSTAPETAIECTQAPAPASEDEKVVVEPPEGEEKVEKAEVKERTEEPMETEPKGAADVEKVEEKSAIDLTPIVVEDKEEKKEEEEKKEVMLQNGETPKDLNDEKQKKNIKQRFMFNIADGGFTELHSLWQNEERAATVTKKTYEIWHRRHDYWLLAGIINHGYARWQDIQNDPRYAILNEPFKGEMNRGNFLEIKNKFLARRFKLLEQALVIEEQLRRAAYLNMSEDPSHPSMALNTRFAEVECLAESHQHLSKESMAGNKPANAVLHKVLKQLEELLSDMKADVTRLPATIARIPPVAVRLQMSERNILSRLANRAPEPTPQQVAQQQ
notes: human CHD4, chromatin remodeling ATPase of NuRD, UniProt Q14839, 1912 aa; Construct (pDFB6 C-Flag) is described in Hoffmeister et al., 2017; also called hCHD4 wild-type; C-Flag hCHD4; not shown: Flag, C-terminal, kept
- stoichiometry N: ≥ 3

B2: CHD4-C-Flag Δ aa 217–360 (enzyme, human, UniProt Q14839 1-1912, looked up)
chain: MASGLGSPSPCSAGSEEEDMDALLNNSLPPPHPENEEDPEEDLSETETPKLKKKKKPKKPRDPKIPKSKRQKKERMLLCRQLGDSSGEGPEFVEEEEEVALRSDSEGSDYTPGKKKKKKLGPKKEKKSKSKRKEEEEEEDDDDDSKEPKSSAQLLEDWGMEDIDHVFSEEDYRTLTNYKAFSQFVRPLIAAKNPKIAVSKMMMVLGAKWREFSTNNAVDGYETDHQDYCEVCQQGGEIILCDTCPRAYHMVCLDPDMEKAPEGKWSCPHCEKEGIQWEAKEDNSEGEEILEEVGGDLEEEDDHHMEFCRVCKDGGELLCCDTCPSSYHIHCLNPPLPEIPNGEWLCPRCTCPALKGKVQKILIWKWGQPPSPTPVPRPPDADPNTPSPKPLEGRPERQFFVKWQGMSYWHCSWVSELQLELHCQVMFRNYQRKNDMDEPPSGDFGGDEEKSRKRKNKDPKFAEMEERFYRYGIKPEWMMIHRILNHSVDKKGHVHYLIKWRDLPYDQASWESEDVEIQDYDLFKQSYWNHRELMRGEEGRPGKKLKKVKLRKLERPPETPTVDPTVKYERQPEYLDATGGTLHPYQMEGLNWLRFSWAQGTDTILADEMGLGKTVQTAVFLYSLYKEGHSKGPFLVSAPLSTIINWEREFEMWAPDMYVVTYVGDKDSRAIIRENEFSFEDNAIRGGKKASRMKKEASVKFHVLLTSYELITIDMAILGSIDWACLIVDEAHRLKNNQSKFFRVLNGYSLQHKLLLTGTPLQNNLEELFHLLNFLTPERFHNLEGFLEEFADIAKEDQIKKLHDMLGPHMLRRLKADVFKNMPSKTELIVRVELSPMQKKYYKYILTRNFEALNARGGGNQVSLLNVVMDLKKCCNHPYLFPVAAMEAPKMPNGMYDGSALIRASGKLLLLQKMLKNLKEGGHRVLIFSQMTKMLDLLEDFLEHEGYKYERIDGGITGNMRQEAIDRFNAPGAQQFCFLLSTRAGGLGINLATADTVIIYDSDWNPHNDIQAFSRAHRIGQNKKVMIYRFVTRASVEERITQVAKKKMMLTHLVVRPGLGSKTGSMSKQELDDILKFGTEELFKDEATDGGGDNKEGEDSSVIHYDDKAIERLLDRNQDETEDTELQGMNEYLSSFKVAQYVVREEEMGEEEEVEREIIKQEESVDPDYWEKLLRHHYEQQQEDLARNLGKGKRIRKQVNYNDGSQEDRDWQDDQSDNQSDYSVASEEGDEDFDERSEAPRRPSRKGLRNDKDKPLPPLLARVGGNIEVLGFNARQRKAFLNAIMRYGMPPQDAFTTQWLVRDLRGKSEKEFKAYVSLFMRHLCEPGADGAETFADGVPREGLSRQHVLTRIGVMSLIRKKVQEFEHVNGRWSMPELAEVEENKKMSQPGSPSPKTPTPSTPGDTQPNTPAPVPPAEDGIKIEENSLKEEESIEGEKEVKSTAPETAIECTQAPAPASEDEKVVVEPPEGEEKVEKAEVKERTEEPMETEPKGAADVEKVEEKSAIDLTPIVVEDKEEKKEEEEKKEVMLQNGETPKDLNDEKQKKNIKQRFMFNIADGGFTELHSLWQNEERAATVTKKTYEIWHRRHDYWLLAGIINHGYARWQDIQNDPRYAILNEPFKGEMNRGNFLEIKNKFLARRFKLLEQALVIEEQLRRAAYLNMSEDPSHPSMALNTRFAEVECLAESHQHLSKESMAGNKPANAVLHKVLKQLEELLSDMKADVTRLPATIARIPPVAVRLQMSERNILSRLANRAPEPTPQQVAQQQ
notes: not shown: Flag, C-terminal, kept
- stoichiometry N: ≥ 3
